Test results: patent US20250145684A1 (IMMATICS BIOTECHNOLOGIES, published 2025)

Biological target: T1, HLA-A*02:01 (human)
T1 construct: MHC monomer first loaded with a UV-sensitive peptide that is cleaved by UV light and exchanged for the test peptide
Assay: UV peptide exchange ELISA
How it was run: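 Peptide–MHC complexes formed by UV-mediated exchange of a photocleavable ligand; exchange yield assessed by ELISA on streptavidin-coated plates, samples diluted 100-fold. Bound complexes detected with HRP anti-β2m and TMB at 450 nm against HLA-A*02:01 monomer standards (15–500 ng/ml).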

binding result: binds
Binder: YVYANHFTEA (also called COL6A3-039) [YVYANHFTEA (SEQ ID NO: 291)]
